Measurements taken from patent US20220153854A1 (Ablynx, published 2022).

Columns and labels:
human IL-4 = biological target: T1, human IL-4 (human, UniProt P05112 25-153); assay: SPR (ProteOn XPR36), cytokine immobilised by amine coupling
T1 construct: also called hIL-4
T1 sequence (looked up): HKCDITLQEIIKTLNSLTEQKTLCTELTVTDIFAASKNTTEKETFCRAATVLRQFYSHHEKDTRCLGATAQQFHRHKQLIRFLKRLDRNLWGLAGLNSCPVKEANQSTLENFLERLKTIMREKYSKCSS
Method: Absence of binding to OX40L and IL-13 related human cytokines was assessed via SPR (Proteon XPR36). As IL-13 related cytokine, IL-4 was assessed. As OX40L related targets, human TRAIL, CD30L, CD40L and RANKL were assessed.
To this end, the cytokines were immobilized on a ProteOn GLC sensor chip at 25 μg/mL for 600 s using amine coupling, with 80 seconds injection of EDC/NHS for activation and a 150-seconds injection of 1 M Ethanolamine HCl for deactivation (ProteOn Amine Coupling Kit. cat. 176-2410). Flow rate during activation and deactivation was set to 30 μl/min, and during ligand injection to 25 μl/min. The pH of the 10 mM acetate immobilization buffer was 6.0 for all cytokines, except for RANKL where the pH was 5.0.
Next, 1 μM of F027100187 was injected for 2 minutes and allowed to dissociate for 600 s at a flow rate of 45 μL/min. As running buffer PBS (pH7.4)+0.005% Tween 20 was used. As positive controls, 100 nM α-hIL-4, α-hTRAIL, α-hCD30L, α-hCD40L Ab and α-hRANKL VHH (Nanobody®, Nb) were injected. Interaction between F027100187 and the positive controls with the immobilized targets was measured by detection of increases in refractory index which occurs as a result of mass changes on the chip upon binding.

mouse serum albumin = biological target: T2, mouse serum albumin (mouse, UniProt P07724 25-608); assay: Gyrolab in-solution affinity, 2 h incubation; 95% CI 101-117 nM
T2 construct: also called mouse SA

human serum albumin = biological target: T3, human serum albumin (human, UniProt P02768 25-609); assay: Gyrolab in-solution affinity, 2 h incubation; 95% CI 7.7-9.0 nM
T3 construct: also called HSA; HAS
T3 sequence (P02768 25-609 limits assumed): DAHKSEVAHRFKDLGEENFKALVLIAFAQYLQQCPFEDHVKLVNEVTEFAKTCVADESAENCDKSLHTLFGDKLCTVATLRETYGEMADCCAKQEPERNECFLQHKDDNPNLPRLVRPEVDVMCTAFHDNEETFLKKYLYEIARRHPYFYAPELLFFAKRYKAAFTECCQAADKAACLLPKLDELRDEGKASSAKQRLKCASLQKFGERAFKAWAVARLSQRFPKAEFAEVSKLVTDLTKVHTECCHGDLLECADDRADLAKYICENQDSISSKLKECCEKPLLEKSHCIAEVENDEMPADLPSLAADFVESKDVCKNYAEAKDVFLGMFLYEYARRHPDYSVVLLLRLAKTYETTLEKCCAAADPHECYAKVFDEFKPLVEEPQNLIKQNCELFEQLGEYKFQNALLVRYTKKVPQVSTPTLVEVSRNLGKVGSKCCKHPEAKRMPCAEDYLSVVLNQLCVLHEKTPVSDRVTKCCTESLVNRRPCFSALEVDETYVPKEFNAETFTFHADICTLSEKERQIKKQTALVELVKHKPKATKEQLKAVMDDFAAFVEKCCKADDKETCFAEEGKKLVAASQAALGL
Method: (§1) Under receptor-controlled measurements a serial dilution of OX40L (ranging from 1.3 μM-0.031 μM), IL-13 (ranging from 0.1 μM-0.25 fM), or serum albumin (ranging from 100 μM-3.2 μM) and a fixed amount of ISVD construct F027100187 (5 nM in case of OX40L, […] in case of IL-13 and 30 nM in case of HSA and cyno SA) were mixed to allow interaction and incubated for either 24 or 48 hours (in case of OX40L and IL-13) or 2 hours (in case of serum albumin) to reach equilibrium.
(§2) Biotinylated human OX40L/IL-13/serum albumin was captured in the microstructures of a Gyrolab Bioaffy 1000 CD, which contains columns of beads and was used as a molecular probe to capture free F027100187 from the equilibrated solution. The mixture of OX40L/IL13/serum albumin and F027100187 (containing free OX40UIL-13/serum albumin, free F027100187 and OX40L/IL13/serum albumin—F027100187 complexes) was allowed to flow through the beads, and a small percentage of free F027100187 was captured, which is proportional to the free ISVD construct concentration. A fluorescently labeled anti-ISVD antibody, ABH0086-Alexa647, was then injected to label any captured F027100187 and after rinsing away excess of fluorescent probe, the change in fluorescence was determined. Fitting of the dilution series was done using Gyrolab Analysis software, where KD- and receptor-controlled curves were analyzed to determine the KD value.

human OX40L = biological target: T4, human OX40L (human, UniProt P23510 51-183); assay: Gyrolab in-solution affinity, 48 h incubation; 95% CI 98-120 pM
T4 construct: Protein in solution or immobilised (SPR, Gyrolab); construct not described; also called huOX40L; hOX40L
T4 sequence (looked up): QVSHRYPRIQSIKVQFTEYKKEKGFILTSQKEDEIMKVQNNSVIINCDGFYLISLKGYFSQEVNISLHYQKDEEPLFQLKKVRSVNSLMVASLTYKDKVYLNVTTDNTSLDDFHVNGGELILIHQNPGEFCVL
Method: as §1, §2

cyno serum albumin = biological target: T5, cyno serum albumin (cynomolgus monkey); assay: Gyrolab in-solution affinity, 2 h incubation; 95% CI 9.7-10.7 nM
T5 construct: also called cyno SA; cynomolgus monkey serum albumin
T5 sequence (A2V9Z4 25-608): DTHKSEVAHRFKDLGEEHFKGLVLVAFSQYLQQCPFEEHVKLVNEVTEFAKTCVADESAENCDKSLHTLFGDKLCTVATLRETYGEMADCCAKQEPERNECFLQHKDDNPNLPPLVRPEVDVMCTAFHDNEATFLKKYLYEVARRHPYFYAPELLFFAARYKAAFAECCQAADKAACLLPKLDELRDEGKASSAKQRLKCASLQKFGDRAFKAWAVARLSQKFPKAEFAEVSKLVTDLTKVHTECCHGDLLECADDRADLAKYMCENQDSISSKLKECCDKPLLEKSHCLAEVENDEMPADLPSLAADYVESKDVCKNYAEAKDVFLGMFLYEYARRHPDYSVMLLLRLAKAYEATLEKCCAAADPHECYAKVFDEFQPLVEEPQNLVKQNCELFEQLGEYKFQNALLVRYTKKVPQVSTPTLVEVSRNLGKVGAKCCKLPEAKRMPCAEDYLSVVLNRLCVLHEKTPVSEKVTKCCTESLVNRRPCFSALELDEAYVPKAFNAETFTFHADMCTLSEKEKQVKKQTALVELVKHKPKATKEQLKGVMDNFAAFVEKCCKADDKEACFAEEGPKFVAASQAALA
Method: as §1, §2

human IL-13 = biological target: T6, human IL-13 (human, UniProt P35225 35-146, limits assumed); assay: Gyrolab in-solution affinity, 48 h incubation; 95% CI 3.8-11.5 pM
T6 construct: Recombinant soluble protein; also called hIL-13; soluble hIL-13
T6 sequence (P35225 35-146 limits assumed): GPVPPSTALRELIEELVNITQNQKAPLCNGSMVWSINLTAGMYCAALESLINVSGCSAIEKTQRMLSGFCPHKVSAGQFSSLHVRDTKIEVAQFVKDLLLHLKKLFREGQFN
Method: as §1, §2

rhesus IL-13 = biological target: T7, rhesus IL-13 (rhesus monkey, UniProt Q864V6 19-132, limits assumed); assay: Gyrolab in-solution affinity, 48 h incubation; 95% CI 9.0-49.5 pM
T7 construct: also called rhesus monkey IL-13
T7 sequence (Q864V6 19-132 limits assumed): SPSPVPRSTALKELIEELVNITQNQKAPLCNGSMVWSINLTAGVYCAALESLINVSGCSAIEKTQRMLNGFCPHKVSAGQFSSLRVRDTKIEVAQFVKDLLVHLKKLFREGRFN
Method: as §1, §2

[1] = biological target: T8, membrane bound cyno OX40L on CHO-KI cells (cynomolgus monkey, UniProt G7NVH7 1-183); assay: flow cytometry on fixed CHO-KI cells expressing cyno OX40L, 48 h incubation
T8 construct: whole, on cells; also called CHO-KI cells expressing cyno OX40L
T8 sequence: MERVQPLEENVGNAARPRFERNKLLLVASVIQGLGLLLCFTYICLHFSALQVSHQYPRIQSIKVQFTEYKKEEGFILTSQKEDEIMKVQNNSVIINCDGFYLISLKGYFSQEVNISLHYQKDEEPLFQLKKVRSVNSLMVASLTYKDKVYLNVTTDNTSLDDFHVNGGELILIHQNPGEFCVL
Method: Briefly, cells were fixed with 4% paraformaldehyde and 0.1% Glutaraldehyde in PBS, seeded at a density of 1×10⁴ cells/well and incubated with a dilution series of ISVD F027100187 or reference compound anti-hOX40L mAb, named Comparator 3, starting from 100 nM […] 0.5 μM, for 48 hours at room temperature. Comparator 3 is a standard conventional monoclonal antibody directed against human OX40L, which is used as a reference throughout the Examples 1 to 12 described herein. Cells were washed 3 times and subsequently incubated with an anti-VHH mAb (ABH00119) for 30 min at 4° C., washed again, and incubated for 30 min at 4° C. with a goat anti-mouse PE or FITC labeled antibody. Samples were washed and resuspended in FACS Buffer (D-PBS with 10% FBS and 0.05% sodium azide supplemented with 5 nM TOPRO3). Cell suspensions were then analyzed on an iQuescreener. EC50 values were calculated using GraphPad Prism.

- binding result (human IL-4): no binding (tested: 1 µM)
- Kd (mouse serum albumin): 109000 pM
- Kd (human serum albumin): 8300 pM
- Kd (human OX40L): 109 pM
- Kd (cyno serum albumin): 10200 pM
- Kd (human IL-13): 7.6 pM
- Kd (rhesus IL-13): 29.3 pM
- EC50 [1]: 36.3 pM
B1: ISVD construct F027100187 (other)
chain: DVQLVESGGGVVQPGGSLRLSCAASRSIGRYDRMGWYRHRPGEPRELVATITGGSSINYGDSVKGRFTISIDNSKNTVYLQMNSLRPEDTALYYCNFNKYQISRDTWGQGTLVTVSSGGGGSGGGSEVQLVESGGGVVQPGGSLRLSCAASGRTFSSYRMGWFRQAPGKEREFVAALSGDGYSTYTANSVKGRFTISRDNSKNTVYLQMNSLRPEDTALYYCAAKLQYVSGWSYDYPYWGQGTLVTVSSGGGGSGGGSEVQLVESGGGVVQPGGSLRLSCAASGFTFRSFGMSWVRQAPGKGPEWVSSISGSGSDTLYADSVKGRFTISRDNSKNTLYLQMNSLRPEDTALYYCTIGGSLSRSSQGTLVTVSSGGGGSGGGSEVQLVESGGGVVQPGGSLRLSCAASGFTFNNYAMKWVRQAPGKGLEWVSSITTGGGSTDYADSVKGRFTISRDNSKNTLYLQMNSLRPEDTALYYCANVPFGYYSEHFSGLSFDYRGQGTLVTVSSA
notes: Tetravalent, trispecific single-chain construct of four VHH (ISVD) domains: one against OX40L, two against IL-13, one against serum albumin; also called F0271000187; F27100187
